Measurements as given in patent publication US20220072144A1 (published 2022).

Key:
Flag-HER3 (WT) = biological target: T1, Flag-HER3 (WT) (human, UniProt P21860 1-1342); experiment: flow cytometry on HER3-stably expressing MDA-MB-231 cells without HER2 overexpression, 0.1 to 100 nM
T1 construct: Flag-tagged full-length HER3 stably expressed in MDA-MB-231 cells, with or without HER2 overexpression; also called wild-type HER3
Description: (§1) Wild-type and various kinds of mutant-type HER3-introduced MDA-MB-231 cells were cultured with RPMI1640 medium (available from Thermo Fisher […] K.K.) containing 10% FBS (available from Hyclone Laboratories, Inc). The cells were separated from the culture plate with TrypLE® Express Enzyme (available from Thermo Fisher […] K.K.), to measure the number of living cells by trypan blue treatment. The same number of living cells were added to a 96-well U-bottom plate, then the cells were precipitated by centrifugation, and the medium was replaced with Stain Buffer (available from Becton, Dickinson and Company). […] The cells were allowed to react on ice for 60 minutes and then washed with Stain Buffer. Further, 100 μL of Stain Buffer or a secondary antibody (Goat anti-Human IgG (H+L) Cross-Adsorbed Secondary Antibody, Alexa Fluor647, Thermo Fisher […] K.K., #A-21445) diluted to 10 μg/mL was added thereto, and the cells were suspended therein. After the cells were allowed to react in the dark on ice for 60 minutes and then washed with Stain Buffer. After the cells were suspended in 100 μL of Stain Buffer, an equal amount of 4% paraformaldehyde phosphate buffer (Wako Pure Chemical Industries, Ltd.) was added thereto, and the mixture was reacted in the dark on ice for 20 minutes. After washing with a Stain Buffer, fluorescence signals were measured using Attune NxT Flow Cytometer (available from Thermo Fisher […] K.K.), and the measurement results were analyzed using FlowJo software (Version 10.5.0, available from Becton, Dickinson and Company).

Flag-HER3 (S846I) = biological target: T2, Flag-HER3 (S846I) (human, UniProt P21860 1-1342); experiment: as above
T2 construct: The entry already carries the mutation; Stably expressed in MDA-MB-231 cells, with or without HER2 overexpression; also called mutant-type HER3 (S846I)
Description: as §1

Flag-HER3 (E928G) = biological target: T3, Flag-HER3 (E928G) (human, UniProt P21860 1-1342); experiment: as above
T3 construct: The entry already carries the mutation; Stably expressed in MDA-MB-231 cells, with or without HER2 overexpression; also called mutant-type HER3 (E928G)
Description: as §1

Flag-HER3 (Q809R) = biological target: T4, Flag-HER3 (Q809R) (human, UniProt P21860 1-1342); experiment: flow cytometry on HER2-overexpressing and HER3-stably expressing MDA-MB-231 cells, same method as Example 3
T4 construct: The entry already carries the mutation; Stably expressed in HER2-overexpressing MDA-MB-231 cells; also called mutant-type HER3 (Q809R)
Description: as §1, with “After the cells were suspended in 100 μL of Stain Buffer, an equal amount of 4% paraformaldehyde phosphate buffer (Wako Pure Chemical Industries, Ltd.) was added thereto, and the mixture was reacted in the dark on ice for 20 minutes.” left out

Flag-HER3 (T355I) = biological target: T5, Flag-HER3 (T355I) (human, UniProt P21860 1-1342); experiment: flow cytometry on HER2-overexpressing and HER3-stably expressing MDA-MB-231 cells, 0.1 to 100 nM
T5 construct: The entry already carries the mutation; Stably expressed in MDA-MB-231 cells, with or without HER2 overexpression; also called mutant-type HER3 (T355I)
Description: as §1

Flag-HER3 (G325R) = biological target: T6, Flag-HER3 (G325R) (human, UniProt P21860 1-1342); experiment: as above
T6 construct: The entry already carries the mutation; Stably expressed in MDA-MB-231 cells, with or without HER2 overexpression; also called mutant-type HER3 (G325R)
Description: as §1

Flag-HER3 (V104M) = biological target: T7, Flag-HER3 (V104M) (human, UniProt P21860 1-1342); experiment: as above
T7 construct: The entry already carries the mutation; Stably expressed in MDA-MB-231 cells, with or without HER2 overexpression; also called mutant-type HER3 (V104M)
Description: as §1

Flag-HER3 (D297Y) = biological target: T8, Flag-HER3 (D297Y) (human, UniProt P21860 1-1342); experiment: as above
T8 construct: The entry already carries the mutation; Stably expressed in MDA-MB-231 cells, with or without HER2 overexpression; also called mutant-type HER3 (D297Y)
Description: as §1

Flag-HER3 (V104L) = biological target: T9, Flag-HER3 (V104L) (human, UniProt P21860 1-1342); experiment: as above
T9 construct: The entry already carries the mutation; Stably expressed in MDA-MB-231 cells, with or without HER2 overexpression; also called mutant-type HER3 (V104L)
Description: as §1

Flag-HER3 (P262H) = biological target: T10, Flag-HER3 (P262H) (human, UniProt P21860 1-1342); experiment: as above
T10 construct: The entry already carries the mutation; Stably expressed in MDA-MB-231 cells, with or without HER2 overexpression; also called mutant-type HER3 (P262H)
Description: as §1

Flag-HER3 (A232V) = biological target: T11, Flag-HER3 (A232V) (human, UniProt P21860 1-1342); experiment: as above
T11 construct: The entry already carries the mutation; Stably expressed in MDA-MB-231 cells, with or without HER2 overexpression; also called mutant-type HER3 (A232V)
Description: as §1

Flag-HER3 (G284R) = biological target: T12, Flag-HER3 (G284R) (human, UniProt P21860 1-1342); experiment: as above
T12 construct: The entry already carries the mutation; Stably expressed in MDA-MB-231 cells, with or without HER2 overexpression; also called mutant-type HER3 (G284R)
Description: as §1

binding result (Flag-HER3 (WT)): binds | binding result (Flag-HER3 (S846I)): binds | binding result (Flag-HER3 (E928G)): binds | binding result (Flag-HER3 (Q809R)): binds | binding result (Flag-HER3 (T355I)): binds | binding result (Flag-HER3 (G325R)): binds | binding result (Flag-HER3 (V104M)): binds | binding result (Flag-HER3 (D297Y)): binds | binding result (Flag-HER3 (V104L)): binds | binding result (Flag-HER3 (P262H)): binds | binding result (Flag-HER3 (A232V)): binds | binding result (Flag-HER3 (G284R)): binds
B1: HER3-ADC (1) (antibody, human IgG1, kappa, V domains shown)
VH: QVQLQQWGAGLLKPSETLSLTCAVYGGSFSGYYWSWIRQPPGKGLEWIGEINHSGSTNYNPSLKSRVTISVETSKNQFSLKLSSVTAADTAVYYCARDKWTWYFDLWGRGTLVTVSS
VL: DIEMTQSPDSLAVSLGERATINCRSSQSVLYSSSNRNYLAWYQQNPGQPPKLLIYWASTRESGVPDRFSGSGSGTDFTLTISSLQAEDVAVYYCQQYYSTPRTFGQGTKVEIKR
modifications: drug-linker (exatecan derivative) conjugated via a thioether bond to cysteine thiols formed at interchain disulfide sites; drug-linker (exatecan derivative) conjugated via a thioether bond to cysteine thiols formed at interchain disulfide sites; average number of conjugated drug molecules per antibody molecule in the range of 7 to 8
notes: also called anti-HER3 antibody-drug conjugate; conjugate of HER3-Ab (1)
